Source: US20210269521A1 (L AND L BIOPHARMA, published 2021)
Like-named read-outs stand apart in the source and are kept apart here.

Assays:
[1] = target: T1, human TIM-3 extracellular domain-human IgG1 Fc fusion protein (human, UniProt Q8TDQ0 22-199); experiment: ELISA
T1 construct: Made in house or bought (ACROBiosystems TM3-H5258); also called TIM-3-hFc; not shown: human IgG1 Fc
Procedure: Goat-anti-hFc (Jackson, 109-005-008) was diluted to a concentration of 1 μg/ml with PBS buffer (pH 7.4) and added to a 96-well microplate (Corning, CLS3590-100EA) at a volume of 50 μl/well, then incubated in an incubator at 37° C. for 2 hours (Or the antigen TIM-3 was directly used to coat the microplate with a concentration of 0.5 μg/ml, and then the antibody to be tested was directly added). After discarding the liquid, a blocking solution of 5% skimmed milk (skimmed milk powder purchased from Bright) diluted with PBS was added at 200 μl per well, and the microplate was incubated for 2.5 hours at 37° C. or overnight (16-18 hours) at 4° C. for blocking. The blocking solution was discarded, and the microplate was washed 5 times with PBST buffer (PBS with pH 7.4 containing 0.05% tween-20), then 50 μl/well of 0.5 μg/ml TIM-3-hFc (Example 1) was added and incubated for 2 hours in a 37° C. incubator. After incubation, the microplate was washed 6 times with PB ST. 50 μl/well of supernatant (containing testing antibody) or different concentrations of the antibody to be tested was added, and the microplate was incubated at 37° C. for 2 hours and washed 5 times with PBST. 50 μl/well of 1:2500 diluted HRP-labeled secondary antibody (Jackson Immuno Research, 115-035-003) was added to the microplate, incubating at 37° C. for 1 hour. After washing the microplate 5 times with PBST, 50 μl/well TMB chromogenic substrate (KPL, 52-00-03) was added to the microplate, followed by incubating at room temperature for 10-15 min.
The above-mentioned TIM-3 and PD-1 bispecific antibodies of the present invention were optimized and designed using the methods of Example 2 and Example 5, and their affinity for TIM-3 and PD-1 were tested respectively.

[2] = target: T2, human TIM-3 extracellular domain-his tag protein (human, UniProt Q8TDQ0 22-199); experiment: SPR Biacore, antibody captured on Protein A, TIM-3-his in flow
T2 construct: Made in house or bought (ACROBiosystems TM3-H5229); also called TIM-3-his; Human Tim3-his; not shown: his tag
Procedure: First, Protein A (Thermo Pierce, Cat #21181) was conjugated to the biosensing chip CMS (Cat. #BR-1005-30, GE), and the chip was activated with the newly prepared 50 mM NHS (N-hydroxysuccinimide) and 200 mM EDC [1-ethyl-3-(3-dimethylaminopropyl) carbodiimide hydrochloride], then 10 μg/ml Protein A prepared with 10 mM NaAC (pH 4.0) was injected. […] The flow rate was 30 μl/min, the binding time was 180 seconds and the dissociation time is 300 seconds. Subsequently, the chip was washed for 30s with 10 mM Glycine-HCl (pH 1.5) at 30 μl/min. The data were fitted with a 1:1 Langmuir model using the software of Biacore T200 evaluation version 3.0 (GE), and the affinity value KD was obtained.

[3] = target: T1, human TIM-3 extracellular domain-human …; experiment: ELISA; remark: listed apart in the source
[4] = target: T1, human TIM-3 extracellular domain-human …; experiment: ELISA; remark: listed apart in the source
[5] = target: T2, human TIM-3 extracellular domain-his …; experiment: ELISA, human TIM-3-his
Marmoset TIM-3 = target: T3, Marmoset TIM-3 (Marmoset, UniProt F7I881 21-290); experiment: ELISA
T3 sequence: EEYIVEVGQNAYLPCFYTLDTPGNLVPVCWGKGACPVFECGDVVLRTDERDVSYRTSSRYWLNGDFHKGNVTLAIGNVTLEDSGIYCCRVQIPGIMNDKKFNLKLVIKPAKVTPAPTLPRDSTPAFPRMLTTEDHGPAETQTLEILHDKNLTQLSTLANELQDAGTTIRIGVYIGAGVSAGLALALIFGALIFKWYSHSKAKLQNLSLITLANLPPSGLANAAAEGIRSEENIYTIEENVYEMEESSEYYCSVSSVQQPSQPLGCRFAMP

| Binder | EC50 [1] [nM] | Kd [2] [nM] | koff [2] [s⁻¹] | kon [2] [M⁻¹ s⁻¹] | EC50 [3] [nM] | EC50 [4] [nM] | EC50 [5] [nM] | EC50 (Marmoset TIM-3) [nM] |
| --- | --- | --- | --- | --- | --- | --- | --- | --- |
| humanized anti-TIM-3 antibody ab6 (antibody, IgG4, V domains shown, also called ab6 intact antibody) VH: EVQLVESGGGLVKPGGSLRLSCAASGFTFSDYYMAWVRQAPGKGLEWVANINYDGSNTYYLDSLKSRFTISRDNAKNSLYLQMNSLRAEDTAVYYCARGLYYYGGNYFAYWGQGTLVTVSS VL: DIQMTQSPSSLSASVGDRVTITCHASQGISSNIGWLQQKPGKAFKGLIYQGSNLEDGVPSRFSGSGSGADYTLTISSLQPEDFATYYCVQFAQFPPTFGQGTKLEIK | 0.087 | 2.83 | 0.00235 | 834000 | 0.084 | 0.095 | 0.11 |  |
| Tim3-0028 (antibody of US20170114135A1) (antibody, V domains shown) VH: EVQLQQSVAELVRPGASVKLSCTASGFNIKTTYMHWVKQRPEQGLEWIGRIDPADDNTKYAPKFQGKATITADTSSNTAYLQLSSLTSEDAAIYYCVRDFGYVAWFAYWGQGTLVTFSA VL: NIVMTPTPKFLPVSSGDRVTMTCRASQSVDNYVAWYQQKPGQSPKLLIYYASNRYIGVPDRFTGSGSGTDFTFTISSVQVEDLAVYFCQQHYSSPYTFGSGTKLEIK |  |  |  |  |  |  |  | 36.2 |
